In the DeepSol protein solubility set:

Assay: soluble on expression in E. coli; label from the status in PepcDB or PDB records

Sequence	soluble on expression in E. coli
ANGFHYTVGFNLSDYQSEVTKFDNESKELGNWYVGQKQGEIWGYETYGLFQSEQEIAGAANQDKVSGGIKLMPGDIRFVDRNNDGVIDWGDNTVDNPGDKKIIGNSTPRYHYGINLGADWKGFDLGIFFQGVGKRDLYLPGTSFRSHYGSEWQVPSAYNNDYWTEENTGAYFPRARFNGGSAINQAQTRYMVDASYCRLKSLSIGYTLPKVLTQKASIEKIRIYFTGENLFTISDTPDGLDPELDNPYTYPMQRSLSVGLSLTF	not soluble
MGSDKIHHHHHHVTRVAVVGDSLSAYAVAAVLTKLGYNCDLLCYPTKSNFYGPSLVLNDVSETLLSELFPDVNLGVDSQRLTHRWVCWGTQPVQIEQPALAIRSNSLLELLRNSKVMQHTRMIDASQLTAQQISQKYAWTVYTKHKQRGMPTLGEPCLQNAARSLLPRSRSVPQGSGTPTAGVAIALSESSQSLIGGQRVIVTAEVQDTPKSAYTCYMESLAEGWLFYAPVNGSGAMVQACLPITPANPRRALLECLYKSTTISTFVNDLQKVNCFFSAPYLEWPLCGLGWLMVGEPAIKIDPVSGEGTPFALRSAILAGAVIDAILSDRIPDISALNHYQTRLTHSFISHLRGCIQFYREVFSTNLAWQAEINQMIDIAETLSTQLEQQAVNVLNYRLIDFELHIG	not soluble
MTETPMMDDLERVLYNQDDIQKRIRELAAELTEFYEDKNPVMICVLTGAVFFYTDLLKHLDFQLEPDYIICSSYSGTKSTGNLTISKDLKTNIEGRHVLVVEDIIDTGLTMYQLLNNLQMRKPASLKVCTLCDKDIGKKAYDVPIDYCGFVVENRYIIGYGFDFHNKYRNLPVIGILKESVYT	soluble
MSLKSADSATQQYLKEKHEEYLSLQHGLQRREETLLATVNQIVVNQHAFLLHQAALAPLLLRDVAKALQVNESTVSRTIKGKHLQTDLGIFAFKDFFSKRTQAVSSSAYHSVDQLKFTMMQLIQSENKMCPASDNLLVKWLYEKGFKVARRTVTKYRNELGLPAASARKSREGHHHHHH	soluble
MGSDKIHHHHHHMLQYRSSKMISMEIVEFKWLKFLDRYRSMAKHNLSNSGMPEPDLRSMGIDTRYESYLNEMVDLDAALRDTVARRYGVDRDNVIITNGGTEAIFLASAFISASSEVIAVPSPEYEPIFIVPESLDRRVRRVKLEKIGQAEKNSESLALSLPNNPTGKYGDIADLVRDAGRTYRYVYIDETFHDFTDDRGSSLYDGSKNLIVSNTMTKFYGLSSLRVGWIVSDKENIDAIRRIKDLTTINNARFSLFLARQAIEKWDRFRERTHSIVRKNADIARKELSDFGFYSDEYEGAPFMFVGDGRFDSEMMASKAISGYGVLVAPGSYFGLDGYLRVCLTALDAREDIAAFREFAEKELGK	not soluble
MGSDKIHHHHHHMKNDKNLLQHFSREEREFVEKIMDMCQQVEDTYSYRLTHFLHPRQDEIVCKIANYYQLQTFSSRDLVSTEHSRVIIAPTYYELDIKHFELTALHLSYARKFHTLSHSQVLGTFLNQLGIKREYLGDILIDDERLIVFIDQKFGQIALQSITKVARVPVKGKEEEWTTVRLPIGQEWRSKDVLVSSMRLDKLISVAFNLSRATANKLIEAGHVKLDYVLTEQTSKLVEIGQLISVRRYGRVRLNEFLGFSKQGKIKLKLDIVKT	not soluble
MSLKIYGVYRSRASRPLWLLAELDLPFEHVPVIQANRVAHPHGPEAPLNTASAAYLAVNPLGQIPCLEEEGLILTESLAITLHIARTQGGQLGPRSEPEDALMVSWSLFAATAVEPPALEIQLIQRSGGGTSPEGQAAIAIAAERLRRPLARLERHFAAEDYLVGGRFTVADLNLAETLRYGQAHPALLEPFPAVAAWLDRCQSRPAFRLMMERRAAEGHHHHHH	soluble
MVFFNRNKIMNKDSTQTWGLKRDITPCFGARLVQEGHRLHFLADRAGFTGSFSEVQTLQLDEAFPHFVAHLELMLLSCELNPRYAHCVTLYRNGLTGEADTLGSHGYVYIAILNRHGFNRHLRVILEHHHHHH	not soluble
MAKMRISPELKKLIEKYRSVKDTEGMSPAKVYKLVGENENLYLKMTDSRYKGTTYDVEREKDMMLWLEGKLPVPKVLHFERHDGWSNLLMSEADGVLCSEEYEDEQSPEKIIELYAECIRLFHSIDISDCPYTNSLDSRLAELDYLLNNDLADVDSENWEEDTPFKDPRELYDFLKTEKPEEELVFSHGDLGDSNIFVKDGKVSGFIDLGRSGRADKWYDIAFCVRSIREDIGEEQYVELFFDLLGIKPDWEKIKYYILLDELF	soluble
GPGSMSSKAALLAVLAGSGQEHLVDDYDALSPSEQTTLATQILSYTNAQWKHMNVILRDSLRLLNLSNAAAGTGGGDAATAAPNITPPPADTIINVPALLAKRPSELAAIRAAGMRVVASGEGAVLLMAGGSGTRLGMTIPKGMVECDKLVSGRSLFAYHCQRIRKMERMAAAAAASLSQPSAVAAAGAAPVPPGAGRGTMPLLVTTSDQNDTATRQFFHDHDFFGLLPNQVFFSRQSSLPCYDEATGRVLMQARGSICLAPGGNAGVYESLAKASATTSGSQSVLAQIEARGVRYVQIVSVDNILARVGDPYFFGVAASYQAEVVLKTVPKVSAAEKVGVVAQVDGEWAVVEYTEIGDRRSAETDPATGELAFNCGSIASHCCSLDFLALAATYMETSTFYHAARKTIPTINGPAPAIKLEAFIFDVFRYAKDVPSRAERAKKAPLPDALQILQVDRSMEFAPIKNADGAAADTPTTAAQLLLDLHTRWVTEAIEAAPGTYAVASTSTSAMYTALERATALQRLRDGQCCWEISPLVSYEGEGLAAYVGQLIHRSATGSGVLGLEEATAGTANM	soluble
MGSDKIHHHHHHMKVALLSPIAWRTPPRHYGPWERVVSLIAEGLVKKGVDVTLFATGDSKTAGRLEYICPIPYEENPNMDAKVWEAMHIAHLFEQAHKFDIIHNNYDFLPLSYSRQVDTPMITTIHGFSSPKILPIYREYNRNNYYVSISNADRSPDLDYYATVYHGIDLNELTLKLNAGSYLLYFGRIHPDKGTAQAIEIARKSDMQLLIAGIIQDKQYFNQQIYPRIDNKKVIYLGSVGPAKRDELLGNALALLHPIHFNEPFGLSVIEAMACGTPVIAFNKGSMPEVIKDGETGFLVDNVEMACEKLGSINKIKRANCRYWVEENFSQERMVSDYLSLYQEIIKGGKLPVRTPSLSGRCK	not soluble
VAESKLVIGDRSFASRLIMGTGGATNLAVLEQALIASGTELTTVAIRRVDADGGTGLLDLLNRLGITPLPNTAGSRSAAEAVLTAQLAREALNTNWVKLEVIADERTLWPDAVELVRAAEQLVDDGFVVLPYTTDDPVLARRLEDTGCAAVMPLGSPIGTGLGIANPHNIEMIVAGARVPVVLDAGIGTASDAALAMELGCDAVLLASAVTRAADPPAMAAAMAAAVTAGYLARCAGRIPKRFWAQASSPAR	soluble
MSLTDEPKLLAEPREGVPNVIDTLPAFRDYCSELASSHGSLAADAERASGFRYGHEDWLVQFKRDGAGIGLLDPQALAAAGADWNDFNRAVGDAVWILHDSLQDLPGFDELGMEPQRLFDTEIAARLLGLKRFGLAAVTEHFLGLTLAKEHSAADWSYRPLPRDWRNYAALDVELLIELETKMRAELKRQGKMEWAQEEFDYALKEGLGPRKEHLIPWMHVSHITEVMRDRQALAIVRALWTRRDELAREYDIAPTLLLSDSSIIEVAKRKPHNAAQFRSIRSINERVRIHTDSEQDKMFERYAPIQRKIKPSMWKNIIQDALALPPSEWPDVDGGAARRHESQSASAPKSIRVWKERYPERLQVLNRVRKAVSQIAEDTRTPVEIVIKPQYLRNLCWTDEPRKRDVARFLSEQGARDWQVSLVAESVSRAIEGHHHHHH	soluble
MSVGQTLAEKILSHKVGRPVRAGELVVVEVDQVMVVDSIAGSFFKRLEYLEATPRYPERVSIVIDHVAPAANLEVAKAQKEIREWGKRHGIRVFDVGRGVCHQVLIEEGLAQPGWVVVGSDSHSTTYGAVGAFGTGMGATDIALAAASGRTWLRVPESVKVVFRGRLPKGVTAKDAALEMVRLLTAEGATYMAVEIHLLDGAEALTRGERMTLANLTVEAGAKAGLVVPSGEILEMYRVPDWLYPDPDARYAKEVEIDLSALTPRVSVPFYVDNVHEVAQVKGKRVDQVFIGTCTNGRIEDLRAAAEVLKGRKVAPWVRLLVVPASSQVLEEAARDGTLLTLLEAGATIGTPGCGPCMGRHMGVLAPGEVCVSTSNRNFRGRMGAPDAEIYLASPRVAAASAVAGYLTTPEELEEEEVHA	soluble
MGSDKIHHHHHHMNKLRILHLNDLHSHLERFPVIERFFAEKSHEEVESLSFDLGDNVDRVHPLTEATEGQFNVELMNRLDLTAATIGNNEGLGLTHEMLSHLYDEANFPVLLSNLATNFAQSEPLIVTTSFGLRIGLIGLTAPYVLAYPQAGWELSDPFVVLDELLPKLDCDFTILLSHLGKNVDEQIAKDYDEIDLIIGAHTHHLFEHGAQVNQTLLAAAGRYGEYVGQIDLTFNENNQLVDAQIEAIATNTLPQRKSDLVETNGWELRGHKLLEGTVVADLPKALPNVLPDFKGSHYLAKIFADYGNTKLCLMNSGLLVTDELPNHLTLDDLHEFLPHSIRLVRFTFTGEELRQVLLEIMDVSDFLATQKIQGMGFRGKTFGSLIFHGIEPREGDFYIKNSENQSLEKISDEESYQIVLPDQYLFAWYFPLLKKLGKSEILFPYFLREIVAEHFKNK	not soluble
MGSDKIHHHHHHMWKELVESISNDMDNVDECFRPTHFWRMGAEYLQQDLDTYGITKFRSLPSTLGYFVPTYLFNGMITEPKKYAELASRCQDIVVTPKAKLFMTDFLSGESQARADFRVYLASQSNRAPYTEHFSESKVGEPVEHFEFEGRNYSRSSLNYLLGINFLKQHISDLSVKTVVEIGGGFGSLGEILLSDERNDTFYINVDIPPTCIFSTFYLQSVFGQSHVADYSVLSKQALVIDDLRSKHKAAIMCPWQLPSLEGKIDLFVNFISFQEMEPDIVENYLSEIDRLQSTYILLRNLREGKQLAHDDSQVGVKKAIKSDDYDKFLPDYELLATNVLPFGYQTIDGFHSELRLYRRKQPKLG	not soluble
MSNPITITESAQSHFAKLLAQQPEGTNIRVFVVNPGTQNAECGVSYCPPEAVEATDTEYPFSGFSAYVDELSLPFLEEAVIDFVTDKMGSQLTLKAPNAKMRKVSDDASLMERVEYALQTQVNPQLAGHGGHVRLISISDDGVALVQFGGGCNGCSMVDVTLKEGIEKELLAQFAGELTAVRDSTEHDRGEHSYY	not soluble
MAGVKAYELRTKSKEQLASQLVDLKKELAELKVQKLSRPSLPKIKTVRKSIACVLTVINEQQREAVRQLYKGKKYQPKDLRAKKTRALRRALTKFEASQVTEKQRKKQIAFPQRKYAIKA	soluble
MGSDKIHHHHHHMLRECDYSQALLEQVNQAISDKTPLVIQGSNSKAFLGRPVTGQTLDVRCHRGIVNYDPTELVITARVGTPLVTIEAALESAGQMLPCEPPHYGEEATWGGMVACGLAGPRRPWSGSVRDFVLGTRIITGAGKHLRFGGEVMKNVAGYDLSRLMVGSYGCLGVLTEISMKVLPRPRASLSLRREISLQEAMSEIAEWQLQPLPISGLCYFDNALWIRLEGGEGSVKAARELLGGEEVAGQFWQQLREQQLPFFSLPGTLWRISLPSDAPMMDLPGEQLIDWGGALRWLKSTAEDNQIHRIARNAGGHATRFSAGDGGFAPLSAPLFRYHQQLKQQLDPCGVFNPGRMYAEL	not soluble
GPGSMSTMAASRSDTPAPVHEMSMERLRREYVSLKSTSYSLTVEESHLIRKIETLREESVRAVLNAEMKEEQVSNQLFRRLDGAEREVQRYQALLKEEESEAESLSGRIKEMRSQQTEVENALEERQEYLLMNLQRKLLDMARKKTAVEQELMAERQKYLDVLVTRLNMLRGRGVGSSTESSVTIHSQPSPAEANTVPVAKHLDVPLPTTAAPHISTPLLRTGVPLGDNHGMLPAEKPLREDAHTDAGLPLPFVLSPAISAQKKPKDGVIVNASRGNTSSTSGRLSASTTPLSADLTPRSSHSSETHHAVVALERKLNQLLLEQAAAMQRTSATEKQCAVLTAKLHAVQEATFLDRARASKMKEELEKARARLSEVKARDRSGIPFSPLDDTSVMSGSNASFDNSSPLVLSSLSLRERTRELLSSVPQPNANERPC	not soluble
